Experimental data reported in patent US20260265403A1 (TJ BIOPHARMA SHANGHAI, published 2026).

T1: human CD24 on cells (human, UniProt P25063 27-59)
T1 chain (looked up): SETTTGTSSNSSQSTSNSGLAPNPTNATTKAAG


Molecular target: T1, human CD24 on cells
Assay: cell-based or functional assay

| Binder | EC50 of Phagocytosis assay, IgG1, Kappa; HEK293-CD24 | EC50 of Phagocytosis assay, IgG1, Kappa; MCF-7 | EC50 of Phagocytosis assay, IgG1, Kappa; NALM6 | EC50 of Phagocytosis assay, IgG1, Kappa; OVCAR3 | EC50 of Phagocytosis assay, IgG4, Kappa; HEK293-CD24 | EC50 of Phagocytosis assay, IgG4, Kappa; MCF-7 | EC50 of Phagocytosis assay, IgG4, Kappa; NALM6 | EC50 of Phagocytosis assay, IgG4, Kappa; OVCAR3 |
| --- | --- | --- | --- | --- | --- | --- | --- | --- |
| 67-H2E7, IgG1, Kappa (antibody, V domains shown) VH: EVQLQQSGPELVKPGASVKISCKASGYEFTGYHMNWVKQSPEKSLEWIGEINPITSDKTFNQKFKAKATLTVDRSSTTAYMHLKSLTSEDSAVYYCARRDYDTSLDYWGQGTTLTVSS VL: DVQITQSPSYLAASPGETITIYCRASKSISKYLAWYQEKPEKTNRLLIYAGSTLQSGIPSRFRGSGSGKDFTLTVSGLEPEDFAMYYCQQHNEYPLTFGAGTKLDLK | 0.42 µg/mL | 0.45 µg/mL | 0.22 µg/mL | 8.46 µg/mL |  |  |  |  |
| 67-H2E7, IgG4, Kappa (antibody, V domains shown) VH: EVQLQQSGPELVKPGASVKISCKASGYEFTGYHMNWVKQSPEKSLEWIGEINPITSDKTFNQKFKAKATLTVDRSSTTAYMHLKSLTSEDSAVYYCARRDYDTSLDYWGQGTTLTVSS VL: DVQITQSPSYLAASPGETITIYCRASKSISKYLAWYQEKPEKTNRLLIYAGSTLQSGIPSRFRGSGSGKDFTLTVSGLEPEDFAMYYCQQHNEYPLTFGAGTKLDLK |  |  |  |  | 0.51 µg/mL | 1.28 µg/mL | 0.68 µg/mL | 0.71 µg/mL |
| 85-D5A10 (4434), IgG1, Kappa (antibody, V domains shown) VH: EVQLQQSGPELVKPGASVKISCKASGYEFTGYHMNWVKQSPEKSLEWIGEINPITSDKTFNQKFKAKATLTVDRSSSTAYMHLKSLTSDDSAVYYCARRDYGTSLDYWGQGTTLTVSS VL: DVQITQSPSYLAASPGETITIYCRASKSISKYLAWYQEKPEKTIRLLIYAGSTLQSGIPSRFRGSGSGKDFTLTVSGLEPEDFAMYYCQQHNEYPITFGAGTKLELI | 6.76 µg/mL | 0.42 µg/mL | 0.32 µg/mL | 0.13 µg/mL |  |  |  |  |
| 79-E3H3, IgG1, Kappa (antibody, V domains shown) VH: EVQLQQSGPELVKPGASVKISCKASGYEFTGYHMNWVKQSPEKSLEWIGEINPITSDKTFNQKFKAKATLTVDRSSSTAYMHLKSLTSEDSAVYYCARRDYDTSLDYWGQGTTLTVSS VL: DVQITQSPSYLAASPGETITIYCRASKSISKYLAWYQEKPEKTNRLLIYAGSTLQSGIPSRFRGSGSGKDFTLTVSGLEPEDFAMYYCQQHNEYPLTFGAGTKLELK | 0.19 µg/mL | 0.52 µg/mL | 0.49 µg/mL | 0.44 µg/mL |  |  |  |  |
| 79-E3H3, IgG4, Kappa (antibody, V domains shown) VH: EVQLQQSGPELVKPGASVKISCKASGYEFTGYHMNWVKQSPEKSLEWIGEINPITSDKTFNQKFKAKATLTVDRSSSTAYMHLKSLTSEDSAVYYCARRDYDTSLDYWGQGTTLTVSS VL: DVQITQSPSYLAASPGETITIYCRASKSISKYLAWYQEKPEKTNRLLIYAGSTLQSGIPSRFRGSGSGKDFTLTVSGLEPEDFAMYYCQQHNEYPLTFGAGTKLELK |  |  |  |  | 0.58 µg/mL | 1.42 µg/mL | 0.72 µg/mL | 0.42 µg/mL |
| 89-E8C12 (4428), IgG1, Kappa (antibody, V domains shown) VH: EVQLQQSGPELVKPGASVKISCKASGYDFTGYYMNWMKQSPEKSLEWIGEINPITSHNTFNQKFKAKATLTVDRSSSTAYMHLKSLTSEDSAVYYCARRDYGTSLDYWGQGTTLTVSS VL: DVQITQSPSYLAASPGETITIYCRASKSISKYLAWYQEKPEKTIRLLIYAGSTLQSGIPSRFRGSGSGTDFTLTVSGLEPEDFAMYYCQQHNEYPLTFGAGTKLELK | 0.2 µg/mL | 0.33 µg/mL | 0.23 µg/mL | 0.15 µg/mL |  |  |  |  |
| 76-F8C6, IgG4, Kappa (antibody, V domains shown) VH: EVKLEESGGGLVQPGGSMKLSCVASGFTFTNSWMNWVRQSPERGLDWVAQIQLKSDNYATRYVESVKGRFTISRDDSKNSVYLQMNNLRAEDTGIYYCTTGTDYWSQGTTLTVSS VL: not shown |  |  |  |  | 0.4 µg/mL | 2.44 µg/mL | 1.62 µg/mL | 0.27 µg/mL |
| 66-D1B10, IgG4, Kappa (antibody, V domains shown) VH: EVRLEESGGGFVQPGGSMKLSCVASGLTFPNHWMNWVRQSPERGLAWVAQIQLKSDNYATRYVESVKGRFTISRDDSESTVYLQMNNLRAEDTGIYYCTTGTDYWGQGTTLTVSS VL: not shown |  |  |  |  | 3.09 µg/mL | 2.26 µg/mL | 6.28 µg/mL | 5.77 µg/mL |
| 45-H1E4, IgG4, Kappa (antibody, V domains shown) VH: QIQLVQSGPELKKPGETVKISCKASGYTFTTYGMSWMKQAPGKGLKWMGWINTYSGVPAYADDFKGRFAFSLDTSASTAYLQINNLKNEDTATYFCARSGYPWSPHSYSTDYWGQGISVTVSS VL: DVLLTQTPLSLPVSLGDQASISCKSSQSIVHSNGNTYLEWYLQKPGQSPKRLIYKVSNRFSGVPDRFSGSGSGTDFTLKISRVEAEDLGVYYCFQGSHVPWTFGGGTKLEIK |  |  |  |  | 0.9 µg/mL | 7 µg/mL | 5.36 µg/mL | 3.35 µg/mL |
| 75-H8B9, IgG4, Kappa (antibody, V domains shown) VH: EVNLEESGGGLVQPGGSRQLSCVASGLTFSKHWMNWVRQSPDKGLEWVAQIQLKSDNYAIRYVDSVKGRFTISRDDSENTVYLQMNNLRAEDTGIYYCTTGTDYWGQGTTLTVSS VL: not shown |  |  |  |  | 0.4 µg/mL | 0.76 µg/mL | 0.84 µg/mL | 0.24 µg/mL |
| 75-H8B9, IgG1, Kappa (antibody, V domains shown) VH: EVNLEESGGGLVQPGGSRQLSCVASGLTFSKHWMNWVRQSPDKGLEWVAQIQLKSDNYAIRYVDSVKGRFTISRDDSENTVYLQMNNLRAEDTGIYYCTTGTDYWGQGTTLTVSS VL: not shown | 0.08 µg/mL | 0.44 µg/mL | 1.16 µg/mL | 0.14 µg/mL |  |  |  |  |
| 59-G9D7, IgG4, Kappa (antibody, V domains shown) VH: QVQLQQPGADLVKPGASVKLSCKASGYTVTTYWMHWVRQRPGRGLEWIGRIDPNSGETKYSEKFKNKATLTVDRPSSTAYMQLSSLTFEDSAVYFCAIYYYLNNFLFDYWGQGTTLTVSS VL: ENVLTQSPAIMSASPGEKVTMTCRASSSVSSSYLHWYQKKSGASPKLWIYSTSNLASGVPARFSGSGSGTSYSLTISSVEAEDAATYYCQQYSGYPLTFGAGTKLELK |  |  |  |  | 2.08 µg/mL | 0.19 µg/mL | 6.57 µg/mL | 1.26 µg/mL |
| 62-F7E9, IgG4, Kappa (antibody, V domains shown) VH: QVQLQQPGAELVKPGASVKLSCKASGYTSTSYWLHWVKQRPGRGLEWIGRIDPNSGETKFNEKFKSQATLTVDKPSSTAYMQLNSLTSEDSAVYYCALYYYGSILFDYWGQGTTLTVSS VL: ENVLTQSPAIMSASPGEKVTMTCRTSSIISSGFLHWYQQKSGASPKLWIYSTSNLASGVPARFSGSGSGTSYSLTISSVEAEDAATYYCQQYSGHPLTFGAGTKLELK |  |  |  |  | 10.5 µg/mL | 0.21 µg/mL | 0.01 µg/mL | 1.41 µg/mL |
| 80-F10A6, IgG1, Kappa (antibody, V domains shown) VH: EVQLQQSGPVLVNPGASVKISCKASGYSFTGYYMNWVKQSPEKSLEWIGEVNPITGDTTYSQNFKAKTTLTVDRSSSTAYMQLKSLTSEDSAVYYCTRRDYGTSLDYWGQGTTLTVSS VL: DVQITQSPSYLAASPGETITIHCRASKSISRYLAWYQEKPGKINTLLIYAGSTLHLGIPSRFSGSGSGTDFTLTISSLELEDFAMYYCQQHNEYPITFGAGTKLELK | 0.39 µg/mL | 0.57 µg/mL | 0.46 µg/mL | 2.23 µg/mL |  |  |  |  |
| 90-D11B6, IgG4, Kappa (antibody, V domains shown) VH: EVQLQQSGPELVKPGASVRISCKASGYSFTGYYMNWVKQSPEKNLEWIGEINPITGGSTYNQKFVAKATLTVDRSSSTAYMQLKSLTSEDSAVYYCTRRDYDTSLDYWGQGTTLTVSS VL: DVQITQSPSYLAASPGETITINCRASKSISKYLAWYQEKPGKTIKLLIYAGSTLQSGIPSRFSGSGYGTDFTLTISSLEPEDFAMYYCQQHNEYPLTFGAGTKLELK |  |  |  |  | 2.78 µg/mL | 1.94 µg/mL | 1.31 µg/mL | 0.86 µg/mL |
| 90-D11B6, IgG1, Kappa (antibody, V domains shown) VH: EVQLQQSGPELVKPGASVRISCKASGYSFTGYYMNWVKQSPEKNLEWIGEINPITGGSTYNQKFVAKATLTVDRSSSTAYMQLKSLTSEDSAVYYCTRRDYDTSLDYWGQGTTLTVSS VL: DVQITQSPSYLAASPGETITINCRASKSISKYLAWYQEKPGKTIKLLIYAGSTLQSGIPSRFSGSGYGTDFTLTISSLEPEDFAMYYCQQHNEYPLTFGAGTKLELK | 1.31 µg/mL | 1 µg/mL | 1.19 µg/mL | 0.59 µg/mL |  |  |  |  |
| 63-B10B9, IgG1, Kappa (antibody, V domains shown) VH: EVQLQQSGPELVKPGASVKISCKASGYSFTGYYMNWVKQSPEKSLEWIGEINPITGGTTYNQKFRAKATLTVDRSSSTAYMQLKSLTSEDSAVYYCTKRDYDTSLDYWGQGTTLIVSS VL: DVQITQSPSYLAAFPGETITINCRASKSIKKYLAWYQEKPGKTNNLLIYSGSTLQSGIPSRFSGSGTGTDFTLTISSLEPEDFAMYYCQQHNEYPLTFGAGTKLELK | 7.02 µg/mL | 1.06 µg/mL | 1.91 µg/mL | 0.56 µg/mL |  |  |  |  |
| 63-B10B9, IgG4, Kappa (antibody, V domains shown) VH: EVQLQQSGPELVKPGASVKISCKASGYSFTGYYMNWVKQSPEKSLEWIGEINPITGGTTYNQKFRAKATLTVDRSSSTAYMQLKSLTSEDSAVYYCTKRDYDTSLDYWGQGTTLIVSS VL: DVQITQSPSYLAAFPGETITINCRASKSIKKYLAWYQEKPGKTNNLLIYSGSTLQSGIPSRFSGSGTGTDFTLTISSLEPEDFAMYYCQQHNEYPLTFGAGTKLELK |  |  |  |  | 1.14 µg/mL | 17.1 µg/mL | 6.16 µg/mL | 9.85 µg/mL |
